Measurements published in PMC3074572 (2011).

Target: TGFβ1 (Homo sapiens, UniProt P01137)
Sequence (P01137 279-390): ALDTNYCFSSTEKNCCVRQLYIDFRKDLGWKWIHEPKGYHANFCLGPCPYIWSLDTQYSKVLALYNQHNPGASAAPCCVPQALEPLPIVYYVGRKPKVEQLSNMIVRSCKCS

B1: KRIWFIPRSSWY peptide (peptide)
chain: KRIWFIPRSSWY
B1 showed a Kd of 10.4 nM.
